The values below come from US20070020327A1.

Like-named read-outs stand apart in the source and are kept apart here.

Assay [1] deals with HLA-A*0201 (human). Kind of assay: competitive inhibition of 125I-labelled standard peptide binding to purified HLA, gel filtration. In general terms: SEC sorts molecules by how far they enter the pores of the column.
Assay [2] has as its target HLA-A*0201 (human). Description: competition with 125I-labelled standard peptide for purified HLA, gel filtration. Particulars: for binding affinity ratio: scale: ratio.
The target of assay [3] is HLA-A*0206 (human). The description is as above.
In assay [4] the target is HLA-A*0202 (human). The description is as above.
Assay [5] deals with HLA-A*0201 (purified HLA class I molecule) (human). The description is as above.
The target of assay [6] is HLA-A*0203 (human). The assay is described as above. The note with it: for binding affinity ratio: scale: ratio.
The mark [7] stands for this setting: remark: other sources report otherwise.
Setting [8] is: remark: other sources report otherwise, scale: ratio.

On to KTHPNYISII (modifications not checked), for which, in assay [1], the binding affinity ratio (ratio to standard peptide) worked out at 0.0001.
With YTKVVHYRKWI (modifications not checked) [PSA 239 peptide …], the binding affinity ratio (IC50 of the standard peptide / IC50 of the test peptide) is 0.0001 in assay [2], -0.0001 in assay [3] and -0.0001 in assay [4].
KITDVVKVLGL (modifications not checked) [… (Kallikrein, position 131)]: the binding affinity ratio (ratio to standard peptide) in assay [1] (setting [7]) was determined as 0.0002.
YTKVVHYRKWI (modifications not checked) [Kallikrein 243 peptide …]: the binding affinity ratio (IC50 of the standard peptide / IC50 of the test peptide) in assay [2] is 0.0001; in assay [3], -0.0001; in assay [4] it was -0.0001.
For the molecule LVHPQWVLTAA (modifications not checked) [Kallikrein (hK2) peptide … (position 54, 11 amino acids)], in assay [5], the binding affinity ratio (IC50 of standard peptide / IC50 of test peptide) was 0.0001.
Regarding PAKITDVVKV (modifications not checked), the binding affinity ratio (IC50 of standard peptide / IC50 of test peptide) was determined as 0.0006 in assay [3] (setting [7]) and 0.01 in assay [4] (setting [7]).
In the case of LVHPQWVLTA (modifications not checked) [PSA peptide … (position 50, 10 amino acids)], the binding affinity ratio (IC50 of standard peptide / IC50 of test peptide) in assay [5] was 0.0001.
As to MALDVYNGLL (modifications not checked) [PAP peptide … (position 298, 10 amino acids)], the binding affinity ratio (IC50 of standard peptide / IC50 of test peptide) in assay [5] was determined as 0.001.
As to KTYSVSFDSL (modifications not checked) [… (PSM, position 623)], the binding affinity ratio (ratio to standard peptide) in assay [1] was 0.0002.
Consider KTHPNYISI (modifications not checked), for which the binding affinity ratio (ratio to standard peptide) in assay [1] was 0.0002.
Turning to LVHPQWVLT (modifications not checked) [PSA peptide … (position 50, 9 amino acids)], the binding affinity ratio (IC50 of standard peptide / IC50 of test peptide) in assay [5] is 0.0001.
Turning to KVLGLPTQEPA (modifications not checked) [… (Kallikrein, position 137, 11 amino acids)], the binding affinity ratio in assay [2] is 0.0001; in assay [6], 0.0009.
Take KLRELSELSL (modifications not checked) [… (PAP, position 234)]: the binding affinity ratio (ratio to standard peptide) in assay [1] amounted to 0.004.
As for LVHPQWVL (modifications not checked) [Kallikrein (hK2) peptide LVHPQWVL (position 54, 8 amino acids)], the binding affinity ratio (IC50 of standard peptide / IC50 of test peptide) in assay [5] came to 0.0001.
With LVHNLTKEL (modifications not checked) [PSM peptide … (position 473, 9 amino acids)], the binding affinity ratio (IC50 of standard peptide / IC50 of test peptide) in assay [5] was 0.0001.
As to NMSLLKHQSL (modifications not checked) [Kallikrein 102 …], the binding affinity ratio (IC50 of standard peptide / IC50 of test peptide) in assay [6] (setting [7]) is 0.04.
Take FLTLSVTWIGV (modifications not checked) [peptide 1419.27 (PSA.3.V11)]: the IC50 in assay [2] was 6.8 nM; in assay [6], 18 nM; in assay [3] it was 65 nM; in assay [4] it was 3 nM.
For the molecule KIVIARYGKV (modifications not checked) [… (PSM, position 199)], the binding affinity ratio (ratio to standard peptide) in assay [1] was 0.0002.
As to LVHPQWVL (modifications not checked) [PSA peptide LVHPQWVL (position 50, 8 amino acids)], the binding affinity ratio (IC50 of standard peptide / IC50 of test peptide) in assay [5] is 0.0001.
LVHPQWVLTA (modifications not checked) [Kallikrein (hK2) peptide … (position 54, 10 amino acids)]: the binding affinity ratio (IC50 of standard peptide / IC50 of test peptide) in assay [5] is 0.0001.
Take KLIMYSAHDT (modifications not checked) [… (PAP, position 282)]: the binding affinity ratio (ratio to standard peptide) in assay [1] worked out at 0.0002.
With KLQCVDLHVV (modifications not checked) [peptide 1419.24 (PSA.166.V10)], the IC50 in assay [6] (setting [7]) worked out at 9.5 nM.
For the molecule PAKITDVVKVL (modifications not checked), the binding affinity ratio (IC50 of standard peptide / IC50 of test peptide) in assay [2] is 0.0002; in assay [6], 0.0017; in assay [3] it was -0.0001; in assay [4], 0.0006.
As to LVLSIALSV (modifications not checked) [Kallikrein (hK2) peptide … (position 4, 9 amino acids)], in assay [5] (setting [7]), the binding affinity ratio (IC50 of standard peptide / IC50 of test peptide) came to 0.002.
With VLAGGFFLL (modifications not checked) [peptide 1126.10 (PSM.27)], the IC50 in assay [4] (setting [7]) is 0.2 nM.
In the case of LVHPQWVLTAA (modifications not checked) [PSA peptide … (position 50, 11 amino acids)], in assay [5], the binding affinity ratio (IC50 of standard peptide / IC50 of test peptide) is 0.0001.
With VLAGGFFLV (modifications not checked) [peptide 1389.20 (PSM.27.V9)], the IC50 amounted to 26 nM in assay [2], 5 nM in assay [6], 57 nM in assay [3] and 0.4 nM in assay [4].
For YASGWGSI (modifications not checked) [PSA 149 peptide YASGWGSI], the binding affinity ratio (IC50 of the standard peptide / IC50 of the test peptide) in assay [2] is -0.0001; in assay [6], 0.0003; in assay [3] it was 0.0003; in assay [4], 0.0009.
Consider STCSGDSGGPL (modifications not checked) [PSA peptide … (position 203, 11 amino acids)], for which the binding affinity ratio in assay [2] (setting [7]) was 0.0005; in assay [6] (setting [7]) it was 0.0092; in assay [3] (setting [8]), 0.0002.
As to LVHPQWVLT (modifications not checked) [Kallikrein (hK2) peptide … (position 54, 9 amino acids)], the binding affinity ratio (IC50 of standard peptide / IC50 of test peptide) in assay [5] is 0.0001.
On to SVGCTGAVPLI (modifications not checked) [Kallikrein (hK2) peptide … (position 11, 11 amino acids)], for which the binding affinity ratio turned out to be 0.01 in assay [2] (setting [7]) and 0.001 in assay [4] (setting [8]).
ALFDIESKV (modifications not checked) [peptide 1129.08 (PSM.711)] had an IC50 in assay [4] (setting [7]) of 0.7 nM.
Turning to LMYSLVHNL (modifications not checked) [peptide 1126.14 (PSM.469)], the concentration for half-maximal inhibition (IC50) in assay [2] is 64 nM; in assay [4], 0.4 nM.
On to KLLEKMGGSA (modifications not checked) [… (PSM, position 304)], for which the binding affinity ratio (ratio to standard peptide) in assay [1] amounted to 0.0003.
Consider YASGWGSI (modifications not checked) [Kallikrein 153 peptide YASGWGSI], for which the binding affinity ratio (IC50 of the standard peptide / IC50 of the test peptide) in assay [2] is -0.0001; in assay [6] it was 0.0003; in assay [3], 0.0003; in assay [4], 0.0009.
Take MMNDQLMFL (modifications not checked) [peptide 1126.01 (PSM.663)]: the IC50 in assay [6] was found to be 1.7 nM; in assay [3], 7.6 nM; in assay [4] it was 0.8 nM.

One may read the IC50 as the concentration at which inhibition is half-maximal.
